Data as given in US20220251184A1 (Regeneron, published 2022).
Changes are numbered by the printed parent chain. One block for each binder: values may come before it.

What was measured:
[1] = biological target: T1, human BMP6 (R&D Systems, Cat #507-BP) (human, UniProt P22004 375-513, limits assumed); assay: competition ELISA, antibody titrated against 2.5 nM biot-hBMP6, plate-coated hHJV-hFc as competitor
T1 construct: Bought protein (R&D Systems 507-BP or 507-BP/CF); also called hBMP6; hBMP-6
T1 sequence: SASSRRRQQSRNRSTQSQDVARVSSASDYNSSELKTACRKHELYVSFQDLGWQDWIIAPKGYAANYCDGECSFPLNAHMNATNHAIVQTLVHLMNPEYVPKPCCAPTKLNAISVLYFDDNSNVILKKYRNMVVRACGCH
Method: Experiments were carried out using the following procedure. Receptors were coated in Hank's Balanced Salt Solution (HBSS) separately at a concentration of 5 μg/mL for hHJV-hFc and […] for hActR2a-hFc on a 96-well microtiter plate overnight at 4° C. […] In other microtiter plates, a constant amount of 2.5 nM of biot-BMP6 (for HJV capture) or 1.5 nM biot-BMP6 (for ActR2a capture) protein was titrated with anti-BMP6 antibodies or isotype control antibodies ranging from 5.1 pM to 300 nM in serial dilution in HBSS with 1.0% BSA and […] heparin. These antibody-protein complexes, after a one-hour incubation, were transferred to the microtiter plate coated with hHJV-hFc or hActR2a-hFc. After two hours of incubation at room temperature, the wells were washed, and plate-bound biot-BMP6 was detected with neutravidin conjugated with horseradish peroxidase (HRP) (Thermo Scientific, Cat #31030). The plates were then developed using TMB substrate solution (BD Biosciences, Cat #555214) according to manufacturer's recommendation and absorbance at 450 nm was measured on a Victor X5 plate reader.
Data analysis was performed using a sigmoidal dose-response model within Prism™ software (GraphPad). […]

[2] = biological target: T1, human BMP6 (R&D Systems, Cat #507-BP); assay: SPR (MASS-1), mAb captured on anti-human Fc, hBMP6 in solution, 37 C; no dissociation observed, kd manually fixed at 1.00E-05; 37 C; no dissociation observed, kd fixed at 1.00E-05
Method: (§1) Equilibrium dissociation constants (KD values) for human and mouse BMP6 binding to purified anti-BMP6 monoclonal antibodies of this invention were determined using a real-time surface plasmon resonance (SPR) biosensor instrument, MASS-1. All binding studies were performed in 10 mM HEPES, 150 mM NaCl, 3 mM EDTA, 1 μg/mL Heparin, and 0.05% v/v Surfactant Tween-20, pH 7.4 (HBS-EHT) running buffer at 25° C. and 37° C. The HCA sensor surface was first derivatized by amine coupling the monoclonal mouse anti-human Fc antibody (GE, #BR100839) and anti-BMP6 monoclonal antibodies were individually captured. Different concentrations of human BMP6 reagents (hBMP6; R&D Systems, Cat #507-BP; 60 nM-0.94 nM; 4-fold serial dilution) or mouse BMP6 (mBMP6; R&D Systems, Cat #6325-BM; 60 nM and 15 nM) prepared in HBS-EHT running buffer were injected over the captured anti-BMP6 monoclonal antibody for 4 minutes at a flow rate of 30 μL/minute, while the dissociation of BMP6 reagent bound to captured anti-BMP6 monoclonal antibody was monitored for 10 minutes in HBS-EHT running buffer. Kinetic association (kₐ) and dissociation (kd) rate constants were determined by fitting the real-time binding sensorgrams to a 1:1 binding model with mass transport limitation using Scrubber 2.0c software. […]

[3] = biological target: T1, human BMP6 (R&D Systems, Cat #507-BP); assay: SPR (MASS-1), mAb captured on anti-human Fc, hBMP6 in solution, 25 C; 25 C
Method: as §1

[4] = biological target: T1, human BMP6 (R&D Systems, Cat #507-BP); assay: competition ELISA, antibody titrated against 2.5 nM biot-hBMP6, plate-coated hHJV-hFc as competitor; value below the lower limit of quantitation of 1.25E-09 M
Method: These antibody-protein complexes, after a one-hour incubation, were transferred to the microtiter plate coated with hHJV-hFc or hActR2a-hFc. After two hours of incubation at room temperature, the wells were washed, and plate-bound biot-BMP6 was detected with neutravidin conjugated with horseradish peroxidase (HRP) (Thermo Scientific, Cat #31030). The plates were then developed using TMB substrate solution (BD Biosciences, Cat #555214) according to manufacturer's recommendation and absorbance at 450 nm was measured on a Victor X5 plate reader.
Data analysis was performed using a sigmoidal dose-response model within Prism™ software (GraphPad). […] Percent blockade at indicated concentration of the antibody tested was calculated as an indicator of the ability of the antibodies to block the binding of 2.5 nM or 1.5 nM of biot-BMP6 to hHJV-hFc or hActR2a-hFc on the plate, respectively. In the calculation, binding signal of the sample of the constant biot-BMP6 without the presence of the antibody for each assay was referenced as 100% binding or 0% blocking; and the baseline signal of the sample of buffer only without the presence of biot-BMP6 was referenced as 0% binding or 100% blocking.
The isotype control antibody blocked <30% at concentrations up to 300 nM antibody, as expected.

- IC50 [1]: 1.61 nM
- koff [2]: ≤ 1e-05 s⁻¹
- Kd [3]: 0.195 nM
B1: H4H17871P (antibody, V domains shown)
VH: EVQLVESGGGLVQPGGSLRLSCAASGFTFNNYAMSWVRQAPGKGLEWVSAISGSGDSTYYADSVKGRFTISRDNSKNTLYLQMNSLRAEDTAVYYCAKRSRSSPFDPWGQGTLVTVSS
VL: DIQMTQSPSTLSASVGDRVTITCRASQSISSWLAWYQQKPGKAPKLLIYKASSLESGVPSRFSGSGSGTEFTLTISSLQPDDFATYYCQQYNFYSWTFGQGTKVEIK
notes: Fully human antibody; also called anti-BMP6 monoclonal antibody; BMP6 antibody of the invention

- IC50 [4]: 0.522 nM
B2: H4H17855P (antibody, V domains shown)
VH: B1 VH with N30S, N31S, D56G, S57R, A61T, I70M, S100P, R101Y, S102N
VL: EIVLTQSPGTLSLSPGEGATLSCRASQSVSSSYLAWYQQKPGQAPRLLIYGASSRATGIPDRFSGSGSGTDFTLTISRLEPEDFVVYYCQHFGGTPFTFGGGTKVEIK
notes: as for B1
